Data: paper PMC9628938, “DED Interaction of FADD and Caspase-8 in the Induction of Apoptotic Cell Death” (Journal of Microbiology and Biotechnology, 2022)

What was measured:
Assay in all cases: SPR; Biacore T100; FADD DED amine-coupled to CM5 chip; caspase-8 DEDs 250 to 5,000 nM as analyte in HBS-EP+ (10 mM HEPES pH 7.4, 150 mM NaCl, 3 mM EDTA, 0.05% P20), 25°C; apparent KD
Conditions in all cases: both partners purified
[1] = biological target: T1, caspase-8 DEDs (residues 1-188), His-tagged, wild type (human, UniProt Q14790 1-188)
T1 construct: human caspase-8, tandem death-effector domains DED1 and DED2, residues 1-188; Cloned in pET-28a; also called His-caspase-8 DEDs (1-188); wild-type caspase-8 DEDs; source: E. coli BL21(DE3), purified (Ni-NTA, gel filtration); also co-expressed with FADD DED in E. coli and co-purified

[2] = biological target: T2, caspase-8 DEDs (residues 1-188) R5E/I128A, His-tagged (human, UniProt Q14790 1-188, R5E | I128A)
T2 construct: human caspase-8, tandem death-effector domains, residues 1-188; also called Caspase-8 DEDs (R5E/I128A); source: E. coli BL21(DE3), purified (Ni-NTA, gel filtration)

[3] = biological target: T3, caspase-8 DEDs (residues 1-188) I128A, His-tagged (human, UniProt Q14790 1-188, I128A)
T3 construct: human caspase-8, tandem death-effector domains, residues 1-188; also called Caspase-8 DEDs (I128A); source: E. coli BL21(DE3), purified (Ni-NTA, gel filtration)
T3 sequence (Q14790 1-188 I128A): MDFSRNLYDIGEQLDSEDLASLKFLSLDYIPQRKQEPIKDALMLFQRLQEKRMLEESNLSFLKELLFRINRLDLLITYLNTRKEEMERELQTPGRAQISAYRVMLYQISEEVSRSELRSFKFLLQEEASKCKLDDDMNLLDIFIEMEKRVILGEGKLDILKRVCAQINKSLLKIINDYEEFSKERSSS

T2 sequence (Q14790 1-188 R5E/I128A): as the sequence (Q14790 1-188 I128A) above, with R5E counted along it
T1 sequence (Q14790 1-188): as the sequence (Q14790 1-188 I128A) above, with A128I counted along it

B1: FADD DED (residues 1-83), His-tagged (domain or fragment, human, UniProt Q13158 1-83, looked up)
chain: MDPFLVLLHSVSSSLSSSELTELKFLCLGRVGKRKLERVQSGLDLFSMLLEQNDLEPGHTELLRELLASLRRHDLLRRVDDFE
notes: human FADD (MORT1), death-effector domain construct, residues 1-83; Cloned in pET-28a; also called wild-type FADD DED; Fas-associated death domain; source: E. coli BL21(DE3), purified (Ni-NTA, gel filtration); also co-expressed with caspase-8 DEDs in E. coli and co-purified
For B1, the Kd [1] was 38 nM, the Kd [2] was 236 nM and the Kd [3] was 61 nM.
